Results on 1 substance are retold here after publication PMC8172861, “Structural and phylogenetic analyses of resistance to next-generation aminoglycosides conferred by AAC(2′) enzymes” (Scientific Reports, 2021).

Common to all, as to assay: purified protein
Format in all cases: biochemical, Providencia stuartii

Series [1] concerns CCN[C@@H]1C[C@H](N)[C@@H](O[C@H]2OC(CN)=CC[C@H]2N)[C@H](O)[C@H]1O[C@H]1OC[C@](C)(O)[C@H](NC)[C@H]1O. The conditions noted are these: acetyl-CoA aminoglycoside active site; acetylated at N-2′.
Series [2] deals with CN[C@@H]1[C@@H](O)[C@@H](O[C@@H]2[C@@H](O)[C@H](O[C@H]3OC(CNCCO)=CC[C@H]3N)[C@@H](N)C[C@H]2NC(=O)[C@@H](O)CCN)OC[C@]1(C)O. The conditions noted are these: acetyl-CoA (S)-HABA tail hydrogen bonds with Glu149 and Asp176.
The subject of series [3] is NC[C@H]1O[C@H](O[C@H]2[C@H](O)[C@@H](O[C@H]3O[C@H](CO)[C@@H](O)[C@H](N)[C@H]3O)[C@H](N)C[C@@H]2N)[C@H](N)C[C@@H]1O. The conditions noted are these: acetyl-CoA aminoglycoside active site; acetylated at N-2′.

Turning to AAC(2′)-Ia (Providencia stuartii), the Km (commonly the substrate concentration at which the rate is half of its maximum) in series [1] is 19.9 ± 1.3 µM; in series [2], 19.1 ± 2.5 µM; in series [3] it was 14.5 ± 1.7 µM. Further, the kcat (in general, the maximal rate divided by the concentration of active sites) in series [1] was determined as 6.05 ± 0.13 s⁻¹; in series [2], 1.42 ± 0.05 s⁻¹; in series [3] it was 5.04 ± 0.17 s⁻¹. In addition, the kcat/Km (usually the second-order rate constant that governs catalysis at low substrate concentration) in series [1] worked out at 304000 ± 26000 M⁻¹ s⁻¹; in series [2], 74000 ± 12000 M⁻¹ s⁻¹; in series [3], 348000 ± 51000 M⁻¹ s⁻¹.
